Experimental data taken from FireProtDB (doi:10.1016/j.jmb.2009.05.011).
Values joined by “and” are separate entries in the source; they are usually repeats but may differ in a detail not shown here. Equal values may be shown once.

B1: Dihydrolipoyllysine-residue succinyltransferase component of 2-oxoglutarate dehydrogenase complex, P0AFG6 (parent)
chain: MSSVDILVPDLPESVADATVATWHKKPGDAVVRDEVLVEIETDKVVLEVPASADGILDAVLEDEGTTVTSRQILGRLREGNSAGKETSAKSEEKASTPAQRQQASLEEQNNDALSPAIRRLLAEHNLDASAIKGTGVGGRLTREDVEKHLAKAPAKESAPAAAAPAAQPALAARSEKRVPMTRLRKRVAERLLEAKNSTAMLTTFNEVNMKPIMDLRKQYGEAFEKRHGIRLGFMSFYVKAVVEALKRYPEVNASIDGDDVVYHNYFDVSMAVSTPRGLVTPVLRDVDTLGMADIEKKIKELAVKGRDGKLTVEDLTGGNFTITNGGVFGSLMSTPIINPPQSAILGMHAIKDRPMAVNGQVEILPMMYLALSYDHRLIDGRESVGFLVTIKELLEDPTRLLLDV

Variants of: B1
Details: Escherichia coli (strain K12), pH 7, structure 1W4H, whole UniProt chain shown
[1] = 10 °C, GdnHCl, CD, 3-[morpholino]propanesulfonic acid 50 mM, NaCl 200 mM
[2] = 10 °C, GdnHCl, Fluorescence, 3-[morpholino]propanesulfonic acid 50 mM, NaCl 200 mM
[3] = Thermal, CD, Potassium phosphate 50 mM, KCl 200 mM

What does the source list for MSSVDILVPDLPESVADATVATWHKKPGDAVVRDEVLVEIETDKVVLEVPASADGILDAVLEDEGTTVTSRQILGRLREGNSAGKETSAKSEEKASTPAQRQQASLEEQNNDAASPAIRRLLAEHNLDASAIKGTGVGGRLTREDVEKHLAKAPAKESAPAAAAPAAQPALAARSEKRVPMTRLRKRVAERLLEAKNSTAMLTTFNEVNMKPIMDLRKQYGEAFEKRHGIRLGFMSFYVKAVVEALKRYPEVNASIDGDDVVYHNYFDVSMAVSTPRGLVTPVLRDVDTLGMADIEKKIKELAVKGRDGKLTVEDLTGGNFTITNGGVFGSLMSTPIINPPQSAILGMHAIKDRPMAVNGQVEILPMMYLALSYDHRLIDGRESVGFLVTIKELLEDPTRLLLDV [L114A]?
ddG of mutation (higher = less stable) [1]: 0.9 kcal/mol; denaturant m value [1]: 0.71 kcal/mol/M; denaturant midpoint (higher = more stable) [1]: 2.6 M; unfolding free energy [1]: 1.85 kcal/mol; denaturant m value [2]: 0.5 kcal/mol/M and 0.18 kcal/mol/M; unfolding free energy [2]: 1.7 kcal/mol; Tm [3]: 41.9 °C; ddG of mutation (higher = less stable) [3]: 0.94 kcal/mol; unfolding enthalpy (van 't Hoff) [3]: 20 kcal/mol

Which “ddG of mutation (higher = less stable)” value [1] does the source give for MSSVDILVPDLPESVADATVATWHKKPGDAVVRDEVLVEIETDKVVLEVPASADGILDAVLEDEGTTVTSRQILGRLREGNSAGKETSAKSEEKASTPAQRQQASLEEQNNDALGPAIRRLLAEHNLDASAIKGTGVGGRLTREDVEKHLAKAPAKESAPAAAAPAAQPALAARSEKRVPMTRLRKRVAERLLEAKNSTAMLTTFNEVNMKPIMDLRKQYGEAFEKRHGIRLGFMSFYVKAVVEALKRYPEVNASIDGDDVVYHNYFDVSMAVSTPRGLVTPVLRDVDTLGMADIEKKIKELAVKGRDGKLTVEDLTGGNFTITNGGVFGSLMSTPIINPPQSAILGMHAIKDRPMAVNGQVEILPMMYLALSYDHRLIDGRESVGFLVTIKELLEDPTRLLLDV [S115G] here?
The value was 0.57 kcal/mol.

What about the denaturant m value [1] of the same variant?
Its denaturant m value is 0.7 kcal/mol/M.

What about the “denaturant midpoint (higher = more stable)” value [1] of the same variant?
Its value is 3.05 M.

What about the unfolding free energy [1] of the same variant?
Its unfolding free energy is 2.14 kcal/mol.

And the denaturant m value [2]?
Its denaturant m value is 0.21 kcal/mol/M.

And the unfolding free energy [2]?
Its unfolding free energy is 2.31 kcal/mol.

And the Tm [3]?
The Tm was 53.6 °C.

And the “ddG of mutation (higher = less stable)” value [3]?
The value was 0.47 kcal/mol.

And the “unfolding enthalpy (van 't Hoff)” value [3]?
Its value is 21 kcal/mol.

Which results are given for MSSVDILVPDLPESVADATVATWHKKPGDAVVRDEVLVEIETDKVVLEVPASADGILDAVLEDEGTTVTSRQILGRLREGNSAGKETSAKSEEKASTPAQRQQASLEEQNNDALSPAARRLLAEHNLDASAIKGTGVGGRLTREDVEKHLAKAPAKESAPAAAAPAAQPALAARSEKRVPMTRLRKRVAERLLEAKNSTAMLTTFNEVNMKPIMDLRKQYGEAFEKRHGIRLGFMSFYVKAVVEALKRYPEVNASIDGDDVVYHNYFDVSMAVSTPRGLVTPVLRDVDTLGMADIEKKIKELAVKGRDGKLTVEDLTGGNFTITNGGVFGSLMSTPIINPPQSAILGMHAIKDRPMAVNGQVEILPMMYLALSYDHRLIDGRESVGFLVTIKELLEDPTRLLLDV [I118A]?
ddG of mutation (higher = less stable) [1]: 1.24 kcal/mol; denaturant m value [1]: 0.65 kcal/mol/M; denaturant midpoint (higher = more stable) [1]: 2.09 M; unfolding free energy [1]: 1.36 kcal/mol; denaturant m value [2]: 0.46 kcal/mol/M and 0.2 kcal/mol/M; unfolding free energy [2]: 1.18 kcal/mol

With MSSVDILVPDLPESVADATVATWHKKPGDAVVRDEVLVEIETDKVVLEVPASADGILDAVLEDEGTTVTSRQILGRLREGNSAGKETSAKSEEKASTPAQRQQASLEEQNNDALSPAIRRALAEHNLDASAIKGTGVGGRLTREDVEKHLAKAPAKESAPAAAAPAAQPALAARSEKRVPMTRLRKRVAERLLEAKNSTAMLTTFNEVNMKPIMDLRKQYGEAFEKRHGIRLGFMSFYVKAVVEALKRYPEVNASIDGDDVVYHNYFDVSMAVSTPRGLVTPVLRDVDTLGMADIEKKIKELAVKGRDGKLTVEDLTGGNFTITNGGVFGSLMSTPIINPPQSAILGMHAIKDRPMAVNGQVEILPMMYLALSYDHRLIDGRESVGFLVTIKELLEDPTRLLLDV [L121A] as the variant, how does the “ddG of mutation (higher = less stable)” value [1] read?
The value was 1.6 kcal/mol.

And the denaturant m value [1]?
The denaturant m value was 0.64 kcal/mol/M.

And the “denaturant midpoint (higher = more stable)” value [1]?
Its value is 1.63 M.

And the unfolding free energy [1]?
Its unfolding free energy is 1.04 kcal/mol.

And the denaturant m value [2]?
The denaturant m value was 0.46 kcal/mol/M and 0.16 kcal/mol/M.

What about the unfolding free energy [2] of the same variant?
The unfolding free energy was 0.9 kcal/mol.

What about the Tm [3] of the same variant?
Its Tm is 32.2 °C.

And the “ddG of mutation (higher = less stable)” value [3]?
Its value is 1.67 kcal/mol.

What about the “unfolding enthalpy (van 't Hoff)” value [3] of the same variant?
The value was 16 kcal/mol.

Which results are given for MSSVDILVPDLPESVADATVATWHKKPGDAVVRDEVLVEIETDKVVLEVPASADGILDAVLEDEGTTVTSRQILGRLREGNSAGKETSAKSEEKASTPAQRQQASLEEQNNDALSPAIRRLLGEHNLDASAIKGTGVGGRLTREDVEKHLAKAPAKESAPAAAAPAAQPALAARSEKRVPMTRLRKRVAERLLEAKNSTAMLTTFNEVNMKPIMDLRKQYGEAFEKRHGIRLGFMSFYVKAVVEALKRYPEVNASIDGDDVVYHNYFDVSMAVSTPRGLVTPVLRDVDTLGMADIEKKIKELAVKGRDGKLTVEDLTGGNFTITNGGVFGSLMSTPIINPPQSAILGMHAIKDRPMAVNGQVEILPMMYLALSYDHRLIDGRESVGFLVTIKELLEDPTRLLLDV [A123G]?
ddG of mutation (higher = less stable) [1]: 0.93 kcal/mol; denaturant m value [1]: 0.72 kcal/mol/M; denaturant midpoint (higher = more stable) [1]: 2.55 M; unfolding free energy [1]: 1.84 kcal/mol; denaturant m value [2]: 0.42 kcal/mol/M and 0.23 kcal/mol/M; unfolding free energy [2]: 1.81 kcal/mol; Tm [3]: 40.8 °C; ddG of mutation (higher = less stable) [3]: 1.02 kcal/mol; unfolding enthalpy (van 't Hoff) [3]: 20 kcal/mol
